In general, Kd refers to the concentration at which binding is half-saturated. A higher Kd goes with lower affinity. The term koff denotes the rate constant with which the complex falls apart. In general, kon refers to a measure of how fast the partners come together. Low readings indicate slower complex formation, high ones faster complex formation.

We go through two molecules from patent US20230159653A1.

The assay deals with ADAM17 (UniProt P78536). Kind of assay: BLI (Octet Red96, 25 C), antibody captured on anti-human Fab-CH1 (FAB2G) biosensor, antigen in solution. For orientation: In BLI a coated tip is dipped into the sample, and binding shifts an interference pattern.

B1: D5.P2.B3 (Fab, V domains shown)
VH: QVQLQQSGAEVKKPGASVKVSCKASGYTFTGYYMHWVRQAPGQGLEWMGWINGNSGGTNYAQKFQGRVTMTRDTSISTAYMELSRLKSDNTAVYYCASSGSMDVWGQGTLVTVSS
VL: QSVVTQPPSVSGAPGQRVTISCSGSSSNVGRNLVYWYQQLPGAAPRLLIYRNNQRPSGVPDRFSGSKSGTSASLAISGLRSEDEADYYCAAWDDSLSGVVFGGGTKLTVLG
As for B1, the Kd is 4.9 nM, the koff is 0.0012 s⁻¹ and the kon worked out at 240000 M⁻¹ s⁻¹.

B2: D5.P1.A4 (Fab, V domains shown)
VH: QVQLQQSGAEVKKPGASVKVSCKASGYTFTGYYMHWVRQAPGQGLEWMGWINGKSGGTNYAQKFQGRVTMTRDTSISTAYMELSRLKSDDTAVYYCARLDRRDYWGQGTLVTVSS
VL: QSVVTQPPSVSGAPGQRVTISCSGSSSNVGRNLVYWYQQLPGAAPRLLIYRNNQRPSGVPDRFSGSKSGTSASLAISGLRSEDEADYYCAAWDDSLSGVVFGGGTKLTVLG
B2 yielded a Kd of 5.3 nM, a koff of 0.0023 s⁻¹ and a kon of 430000 M⁻¹ s⁻¹.
